Source: patent EP4570823A1

Molecular target: Aβ oligomers, P05067
Experiment: SPR (Biacore), 3F fixed on CM5 chip, Aβ oligomers in flow
Conditions: remark: other sources report otherwise

Chain of Aβ oligomers, P05067 (P05067 672-713): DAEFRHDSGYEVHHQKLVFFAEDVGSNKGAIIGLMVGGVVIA

B1: antibody 3F (scFv)
scFv: MAEVQLLESGGGLVQPGGSLRLSCAASGFTFSSYAMSWVRQAPGKGLEWVSGISNLGLTTGYADSVKGRFTISRDNSKNTLYLQMNSLRAEDTAVYYCAKTTSRFDYWGQGTLVTVSSGGGGSGGGGSGGGGSTDIQMTQSPSSLSASVGDRVTITCRASQSISSYLNWYQQKPGKAPKLLIYKASYLQSGVPSRFSGSGSGTDFTLTISSLQPEDFATYYCQNSAVRPVTFGQGTKVEIKR
B1 showed a Kd of 0.847 nM.
